Target: Wild type CXCL12 (CXCL12-WT) (UniProt P48061-2 22-89)
Assay: ITC

Wild type CXCL12 (CXCL12-WT), sequence (P48061 22-89): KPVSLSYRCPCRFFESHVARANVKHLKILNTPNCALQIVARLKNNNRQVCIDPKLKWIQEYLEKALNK

Kd: 4 µM | stoichiometry N: ~0.5
B1: ACKR1^N-term, sixty-amino acid peptide corresponding to the extracellular N-terminus of ACKR1 (domain or fragment, UniProt Q16570 1-60, looked up)
chain: MGNALHRAELSPSTENSSQLDFEDVWNSSYGVNDSFPDGDYGANLEAAAPAHSANLLDDS

Source: PMC9015690 (Science signaling, 2021)
